Laboratory results: US20250179200A1 (UNIVERSITY OF CHICAGO, published 2025)
Residue numbers refer to the chain shown, from its start.

B1: GHR1 Fab (Fab, V domains shown)
VH: EVQLVESGGGLVQPGGSLRLSCAASGFNVSYSSIHWVRQAPGKGLEWVAYIYSSYGSTYYADSVKGRFTISADTSKNTAYLQMNSLRAEDTAVYYCAREYWPYYSQTGGSAMDYWGQGTLVTVSS
VL: DIQMTQSPSSLSASVGDRVTITCRASQSVSSAVAWYQQKPGKAPKLLIYSASSLYSGVPSRFSGSRSGTDFTLTISSLQPEDFATYYCQQSMHPLITFGQGTKVEIKR
notes: Synthetic human Fab from phage display, expressed in E. coli
B2: GHR3 Fab (Fab, V domains shown)
VH: EVQLVESGGGLVQPGGSLRLSCAASGFNVSYYSIHWVRQAPGKGLEWVAYISPSYGSTSYADSVKGRFTISADTSKNTAYLQMNSLRAEDTAVYYCARGYWGGGYWPYHAFDYWGQGTLVTVSS
VL: B1 VL with S91Y, M92Y, H93T, P94S, I96L
notes: Fab
B3: GHR12 Fab (Fab, V domains shown)
VH: EVQLVESGGGLVQPGGSLRLSCAASGFNVSYYSIHWVRQAPGKGLEWVASIYSSYGSTYYADSVKGRFTISADTSKNTAYLQMNSLRAEDTAVYYCARGYWQGGYYRWGNGGLDYWGQGTLVTVSS
VL: B1 VL with M92Y, H93G, P94W
notes: Fab
B4: GHR4 Fab (Fab, V domains shown)
VH: EVQLVESGGGLVQPGGSLRLSCAASGFNVYYSYIHWVRQAPGKGLEWVAYISPYSGSTSYADSVKGRFTISADTSKNTAYLQMNSLRAEDTAVYYCARQEWYAFDYWGQGTLVTVSS
VL: B1 VL with S91Y, M92W, H93S, P94Y
notes: Fab; also called FAB4
B5: GHR8 Fab (Fab, V domains shown)
VH: EVQLVESGGGLVQPGGSLRLSCAASGFNISYSSIHWVRQAPGKGLEWVASIYSSYGSTYYADSVKGRFTISADTSKNTAYLQMNSLRAEDTAVYYCARSYIYSQPGFYYDSYALDYWGQGTLVTVSS
VL: B1 VL with S91Y, M92G, H93S, P94W
notes: Fab
B6: GHR7 Fab (Fab, V domains shown)
VH: EVQLVESGGGLVQPGGSLRLSCAASGFNFSYSSIHWVRQAPGKGLEWVAYISSYYGYTSYADSVKGRFTISADTSKNTAYLQMNSLRAEDTAVYYCARLQHPSWYYYQGYHSGMDYWGQGTLVTVSS
VL: B1 VL with S91Y, M92W, H93S, P94S
notes: Fab
B7: GHR13 Fab (Fab, V domains shown)
VH: EVQLVESGGGLVQPGGSLRLSCAASGFNVYYSSIHWVRQAPGKGLEWVAYIYPSSGSTSYADSVKGRFTISADTSKNTAYLQMNSLRAEDTAVYYCARSWQWYYPGWEQYGWYGMDYWGQGTLVTVSS
VL: B1 VL with M92G, H93G, P94S, I96V
notes: Fab
B8: GHR11 Fab (Fab, V domains shown)
VH: EVQLVESGGGLVQPGGSLRLSCAASGFNLSYYYIHWVRQAPGKGLEWVASIYSSSGYTYYADSVKGRFTISADTSKNTAYLQMNSLRAEDTAVYYCARQYPYSWSSYGFSSGALDYWGQGTLVTVSS
VL: DIQMTQSPSSLSASVGDRVTITCRASQSVSSAVAWYQQKPGKAPKLLIYSASSLYSGVPSRFSGSRSGTDFTLTISSLQPEDFATYYCQQYFAYYSPITFGQGTKVEIKR
notes: Fab
B9: GHR2 Fab (Fab, V domains shown)
VH: EVQLVESGGGLVQPGGSLRLSCAASGFNLYYSSIHWVRQAPGKGLEWVAYISPSYGSTSYADSVKGRFTISADTSKNTAYLQMNSLRAEDTAVYYCARYYDYSWPWYWHGGGPAFDYWGQGTLVTVSS
VL: DIQMTQSPSSLSASVGDRVTITCRASQSVSSAVAWYQQKPGKAPKLLIYSASSLYSGVPSRFSGSRSGTDFTLTISSLQPEDFATYYCQQYEEYPLITFGQGTKVEIKR
notes: Fab
B10: GHR14 Fab (Fab, V domains shown)
VH: EVQLVESGGGLVQPGGSLRLSCAASGFNISSSYIHWVRQAPGKGLEWVASISSYYGYTSYADSVKGRFTISADTSKNTAYLQMNSLRAEDTAVYYCARSYGSYYGYYHYWEWYGLDYWGQGTLVTVSS
VL: B9 VL with Y91W, E92Q, E93Y, Y94W, P95S, L96P, I97V
notes: Fab
B11: GHR10 Fab (Fab, V domains shown)
VH: EVQLVESGGGLVQPGGSLRLSCAASGFNFSYYSIHWVRQAPGKGLEWVASISSYYGSTSYADSVKGRFTISADTSKNTAYLQMNSLRAEDTAVYYCARTEYSFGMYWAHTGMDYWGQGTLVTVSS
VL: B9 VL with Y91F, E92W, E93S, Y94S, P95E, L96P
notes: Fab
B12: GHR9 Fab (Fab, V domains shown)
VH: EVQLVESGGGLVQPGGSLRLSCAASGFNVSYSSIHWVRQAPGKGLEWVASISSSYGSTYYADSVKGRFTISADTSKNTAYLQMNSLRAEDTAVYYCARYYDYSWSTYKGIGTGAIDYWGQGTLVTVSS
VL: B9 VL with E92W, E93Y, Y94S, P95Y
notes: Fab
B13: GHR5 Fab (Fab, V domains shown)
VH: EVQLVESGGGLVQPGGSLRLSCAASGFNVSYYSIHWVRQAPGKGLEWVAYISPSSGSTSYADSVKGRFTISADTSKNTAYLQMNSLRAEDTAVYYCARMYWQGGYSSYWQSYAMDYWGQGTLVTVSS
VL: B9 VL with Y91K, E92S, E93Q, P95S, I97V
notes: Fab
B14: GHR6 Fab (Fab, V domains shown)
VH: EVQLVESGGGLVQPGGSLRLSCAASGFNVYYSSIHWVRQAPGKGLEWVASIYSSYGYTSYADSVKGRFTISADTSKNTAYLQMNSLRAEDTAVYYCARGQWSGLSGYWEYKALDYWGQGTLVTVSS
VL: B9 VL with Y91V, E92G, E93G, Y94S, P95S
notes: Fab
B15: GHR15 Fab (Fab, V domains shown)
VH: EVQLVESGGGLVQPGGSLRLSCAASGFNVSSSSIHWVRQAPGKGLEWVASIYSYYGYTSYADSVKGRFTISADTSKNTAYLQMNSLRAEDTAVYYCARSSGYHGWYWNGMDYWGQGTLVTVSS
VL: B9 VL with Y91W, E92Y, E93G, Y94M, P95S, I97V
notes: Fab

What follows are binders tested against T1, Human GHR-Fc-10x His (extracellular region of human growth hormone receptor fused to human Fc) (human, UniProt P10912 50-256) (assay: SPR, GHR-Fc-10xHis captured on Ni-NTA chip, Fab as analyte, 1:1 fit).
T1 construct: Captured by its 10x His-tag on a Ni-NTA sensor chip for SPR; not shown: human Fc domain of vector pAB1200 with its linker; 10x His-tag replacing the AviTag
T1 sequence (looked up): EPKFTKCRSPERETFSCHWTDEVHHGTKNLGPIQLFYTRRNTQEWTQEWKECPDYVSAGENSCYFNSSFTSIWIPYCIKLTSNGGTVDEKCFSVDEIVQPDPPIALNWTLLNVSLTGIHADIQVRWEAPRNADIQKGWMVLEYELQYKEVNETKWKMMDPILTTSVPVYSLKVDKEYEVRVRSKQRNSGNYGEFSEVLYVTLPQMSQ
Method: Surface plasmon resonance (SPR) measurements were conducted in a MASS-1 (Bruker) instrument. The target GHR-Fc (50 nM) with a 10× His-tag was captured in a Ni-NTA sensor chip. […] Flow rate was 30 ul/min and temperature 20° C. Sensograms were corrected through double referencing and fitting was done with a 1:1 binding model using the Sierra Analyzer (Bruker). For epitope binning experiments, the first FAB was injected at saturating concentrations (200 nM), followed by injection a second FAB in equal molar mixture with the first FAB, and the response unit (RU) was recorded.
Target GHR_Fc (from different species) were immobilized via a 10× His-tag to a Ni-NTA sensor chip. […] Sensograms were corrected through double referencing and 1:1 binding model fit was done using Sierra Analyzer (Bruker). To reveal different epitopes on GHR, the epitope binning experiment was performed.

First: B1
Second: B2
The Kd of the first is higher: 6.29 nM for the first, under 1 nM for the second.

Compared with B3, B4 is higher in Kd: under 1 nM for the first, 1.9 nM for the second. The first binds more tightly here.

B5 and B6 are within 1.5-fold of each other in Kd: 3.23 nM for the first, 2.21 nM for the second.

Going from B7 to B8, the Kd falls from 2.84 nM to 1.3 nM (2.2-fold). The second binds more tightly here.

Going from B9 to B10, the Kd falls from 16.8 nM to 7.15 nM (2.3-fold).

First: B11
Second: B12
The Kd of the first is higher: 1.51 nM for the first, under 1 nM for the second.

Going from B13 to B14, the Kd falls from 15.5 nM to 1.89 nM (8.2-fold). The second binds more tightly here.

In the case of B15, the Kd is reported as under 1 nM.

In order of falling koff:
1. B13  0.00211 s⁻¹
2. B6  0.00129 s⁻¹
3. B10  0.00127 s⁻¹
4. B4  0.000992 s⁻¹
5. B9  0.000873 s⁻¹
6. B11  0.000642 s⁻¹
7. B8  0.000587 s⁻¹
8. B7  0.00053 s⁻¹
9. B5  0.000505 s⁻¹
10. B1  0.000336 s⁻¹
11. B14  0.000296 s⁻¹
12. B3  0.000168 s⁻¹
13. B15  0.000131 s⁻¹
14. B12  0.00012 s⁻¹
15. B2  1.32e-06 s⁻¹

In order of rising kon:
1. B9  51200 M⁻¹ s⁻¹
2. B1  53400 M⁻¹ s⁻¹
3. B13  136000 M⁻¹ s⁻¹
4. B5  156000 M⁻¹ s⁻¹
5. B14  156000 M⁻¹ s⁻¹
6. B15  170000 M⁻¹ s⁻¹
7. B10  177000 M⁻¹ s⁻¹
8. B7  187000 M⁻¹ s⁻¹
9. B12  238000 M⁻¹ s⁻¹
10. B2  405000 M⁻¹ s⁻¹
11. B11  425000 M⁻¹ s⁻¹
12. B8  451000 M⁻¹ s⁻¹
13. B4  522000 M⁻¹ s⁻¹
14. B3  536000 M⁻¹ s⁻¹
15. B6  587000 M⁻¹ s⁻¹
